Results from paper doi:10.1101/2023.12.23.573190 (bioRxiv, 2023).

Key:
[1] = biological target: PTPRZ1 CA protein (Cusabio Technology LLC, CSB-YP019068HU) (Homo sapiens, UniProt P23471); assay: SPR
[2] = biological target: carbonic anhydrase II protein (Sigma Aldrich, C2522) (Bos taurus, UniProt P00921); assay: SPR
Chain of carbonic anhydrase II protein (Sigma Aldrich, C2522) (P00921 whole entry): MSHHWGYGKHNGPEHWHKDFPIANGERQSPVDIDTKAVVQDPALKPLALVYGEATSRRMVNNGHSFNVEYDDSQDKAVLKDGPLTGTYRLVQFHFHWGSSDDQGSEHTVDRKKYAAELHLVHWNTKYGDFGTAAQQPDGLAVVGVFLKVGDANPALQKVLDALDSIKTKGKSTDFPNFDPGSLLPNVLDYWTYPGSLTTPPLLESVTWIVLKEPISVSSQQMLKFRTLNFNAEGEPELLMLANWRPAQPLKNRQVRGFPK

Chain of PTPRZ1 CA protein (Cusabio Technology LLC, CSB-YP019068HU) (P23471 36-300): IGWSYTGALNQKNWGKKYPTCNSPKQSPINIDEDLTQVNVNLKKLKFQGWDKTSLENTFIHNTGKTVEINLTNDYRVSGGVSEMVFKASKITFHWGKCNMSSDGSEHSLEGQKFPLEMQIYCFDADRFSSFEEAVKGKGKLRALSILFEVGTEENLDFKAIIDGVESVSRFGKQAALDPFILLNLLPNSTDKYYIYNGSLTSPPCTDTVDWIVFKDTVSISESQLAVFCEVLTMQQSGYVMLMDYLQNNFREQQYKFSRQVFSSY

B1: anti-PTPRZ1 scFv RB473, scFv-Rabbit Fc (scFv, V domains shown)
VH: not shown
VL: QSVLTQPPSVSAAPGQKVTISCSGSSSNIGNNYVSWYQQLPGTAPKLLIYDNNKRPSGIPDRFSGSKSGTSATLGITGLQTGDEADYYCGTYDYIATRAVFGGGTKLTVL
In the case of B1, the Kd [1] is reported as 57.4 nM and the binding result [2] is reported as “no binding (tested: 800 nM)”.
